Experimental data from the supplement of paper PMC7125110.
± gives the standard error. This sample holds only a part of the variants without activity.

B1: glmS ribozyme (parent)
chain: AUAAAAGCGCCAGAACUACAGAAAUGUAGUUGACGAGGAGGAGGUUUAUCGAAUUUUCGGCGGAUGCCUCCAAA

Key:
Conditions in all cases: with glucosamine-6-phosphate
[1] = variants of: B1; assay: self-cleavage kobs at 160 uM GlcN6P; higher = faster cleavage; RNA array
Summary of the method: (§1)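 kobs was derived by fitting per-tile medians to one- or two-exponential decays after normalising signals to baseline and to non-cleaving reference variants. Those signals came from barcoded ribozyme variants transcribed in situ by E. coli RNA polymerase on sequenced MiSeq chips, followed through a hybridised Cy3 probe at 37 °C and imaged over ~14 h. Glucosamine-6-phosphate (40 μM to 10 mM) in HEPES/KCl/Mg(OAc)2 buffer was flowed in. Weighted Michaelis–Menten fits across concentrations then gave kcat and KM.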

[2] = variants of: B1; assay: self-cleavage kobs at 640 uM GlcN6P; higher = faster cleavage; RNA array
Summary of the method: as §1

[3] = variants of: B1; assay: self-cleavage kobs at 2500 uM GlcN6P; higher = faster cleavage; RNA array
Summary of the method: as §1

[4] = variants of: B1; assay: self-cleavage kobs at 10000 uM GlcN6P; higher = faster cleavage; RNA array
Summary of the method: as §1

| Variant | self-cleavage kobs at 160 uM GlcN6P [1] [s⁻¹] | self-cleavage kobs at 640 uM GlcN6P [2] [s⁻¹] | self-cleavage kobs at 2500 uM GlcN6P [3] [s⁻¹] | self-cleavage kobs at 10000 uM GlcN6P [4] [s⁻¹] |
| --- | --- | --- | --- | --- |
| A15C U65A | 3.48e-05 ± 1.4e-05 | 0.000177 ± 2.9e-05 | 0.000234 ± 5.7e-05 | 0.000807 ± 0.00016 |
| A36C A52C | < 1e-05 |  |  | < 1e-05 |
| G9U G29C | < 1e-05 | < 1e-05 | < 1e-05 | < 1e-05 |
| G38U G62C | < 1e-05 | < 1e-05 |  |  |
| U65C G66C | < 1e-05 | < 1e-05 |  | < 1e-05 |
| G29C A36G G41U | < 1e-05 | < 1e-05 | < 1e-05 |  |
| A48C G60A C61A | < 1e-05 |  |  |  |
| G59C G60A | < 1e-05 |  | < 1e-05 |  |
| G51C C67G | < 1e-05 |  |  | < 1e-05 |
| C16U U31A G43U A52U | < 1e-05 | < 1e-05 | < 1e-05 |  |
| G7U U49G | < 1e-05 | < 1e-05 | < 1e-05 | < 1e-05 |
| G7U U55G U57G C61A A64C C68U | < 1e-05 |  | < 1e-05 |  |
| C34A A39C U49A U55C | < 1e-05 |  |  |  |
| A15C U30A | 0.000667 ± 0.00019 | 0.00307 ± 0.00075 | 0.0188 ± 0.0047 | 0.0299 ± 0.015 |
| A53G A64U U69G | 0.000191 ± 6.9e-05 | 0.000772 ± 0.00022 | 0.000517 ± 0.00019 |  |
| C8U A14C | < 1e-05 | < 1e-05 | < 1e-05 | < 1e-05 |
| G38C G41C | < 1e-05 | < 1e-05 | < 1e-05 |  |
| A53G G60A G66C | < 1e-05 |  |  |  |
| U45A U57C | 3.83e-05 ± 1.6e-05 | 3.94e-05 ± 8.9e-06 | 0.000268 ± 4.2e-05 | 0.000355 ± 4.8e-05 |
| G40A C61U C68G C70G C71G | < 1e-05 | < 1e-05 |  |  |
| C10A G13U A15G G40U U46G | < 1e-05 | < 1e-05 | < 1e-05 |  |
| G7U A12U U45G | < 1e-05 | < 1e-05 | < 1e-05 |  |
| G29C U46G U47A C70G | 5.51e-05 ± 2.1e-05 | 0.00011 ± 3.9e-05 | 6.12e-05 ± 2.5e-05 |  |
